Measurements taken from publication PMC3695027, “Structural Insights into the Effector – Immunity System Tae4/Tai4 from Salmonella typhimurium” (PLoS ONE, 2013).
Like-named read-outs stand apart in the source and are kept apart here.

T1: Tae4 effector protein from Salmonella typhimurium (full-length, hexahistidine-tagged) (Salmonella typhimurium, UniProt Q93IS4 1-161)
T1 chain: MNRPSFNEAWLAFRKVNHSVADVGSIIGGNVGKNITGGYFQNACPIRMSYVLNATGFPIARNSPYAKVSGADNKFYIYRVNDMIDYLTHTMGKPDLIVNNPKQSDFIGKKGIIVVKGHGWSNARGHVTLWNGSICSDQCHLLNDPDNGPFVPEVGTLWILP

T2: Tae4 effector protein from Salmonella typhimurium (full-length, hexahistidine-tagged) (Salmonella typhimurium, UniProt Q93IS4 1-161)
T2 construct: Tae4, Salmonella typhimurium, NP_459275.1, full-length orf; Asn2 to the C-terminal Pro161 modelled in the crystal structure; The single-expression construct was cut out of the bicistronic construct (NcoI/MfeI), so the Tae4 chain is the same in both; No tag removal is described; The crystal for PDB 4J30 held the selenomethionine-substituted complex; also called type-6-secretion amidase effector 4; …
T2 sequence: T1 chain

B1: Tai4 immunity protein from Salmonella typhimurium, wild type, periplasmic (C-terminal hexahistidine tag) (natural protein)
chain: QEALTTQYSQSELLKNWALSHCLALVYKDDVVKNDARATASAYLEYGKQSVEIYHEIDEIAKKYSGLKYNGSISSDFNTMKCIDFIHDRELNELIKRRVEK
notes: Tai4, Salmonella typhimurium, NP_459276.1; Dimer in solution (cross-linking, static light scattering); the calculated dimer mass of 25.95 kDa fits the cut, tagged protein; also called Tai4wt; wild-type Tai4
B2: Tai4 immunity protein from Salmonella typhimurium, untagged, co-expressed with Tae4 (as in the Tae4/Tai4 complex) (natural protein)
chain: B1 chain
notes: Tai4, Salmonella typhimurium, NP_459276.1; Gln27 to Lys127 modelled in the crystal structure; Homodimer at the centre of the Tae4_2/Tai4_2 heterotetramer; The crystal for PDB 4J30 held the selenomethionine-substituted complex

How the values were obtained:
[1] = target: Tae4-ATTO 488 (fluorescently labelled Tae4 from Salmonella typhimurium) (Salmonella typhimurium); assay: stopped-flow fluorescence kinetics; association by direct mixing: 0.1 µM Tae4-ATTO 488 with 0.3-1.5 µM Tai4; 293 K; 50 mM MES pH 6.5, 200 mM NaCl; kobs against Tai4 concentration, kon from the slope
[2] = target: Tae4-ATTO 488 (fluorescently labelled Tae4 from Salmonella typhimurium) (Salmonella typhimurium); assay: stopped-flow fluorescence kinetics; dissociation: preassembled Tae4-ATTO 488/Tai4 complex (0.1 µM wild type or 0.2 µM mutant) chased with 1 or 2 µM unlabelled Tae4; apparent dissociation rate constant; limit for the wild type from simulated traces; KD calculated as koff/kon with the kon of the direct mixing
[3] = target: Tae4-ATTO 488 (fluorescently labelled Tae4 from Salmonella typhimurium) (Salmonella typhimurium); assay: as above; remark: listed apart in the source
[4] = target: T1, Tae4 effector protein from Salmonella …; assay: ITC
[5] = target: the molecule itself; assay: cross-linking; glutaraldehyde, 0.25 µg/µl protein in 20 mM HEPES pH 7.5, 37°C, aliquots 0 to 60 min, Coomassie-stained SDS-PAGE
[6] = target: T2, Tae4 effector protein from Salmonella …; assay: ITC; 29.5 µM wild-type Tai4 titrated into 2.17 µM Tae4 in the cell; 293 K; 50 mM MES pH 6.5, 200 mM NaCl; single-site binding model; conditions: both partners purified
[7] = target: T2, Tae4 effector protein from Salmonella …; assay: stopped-flow fluorescence kinetics; association by intrinsic tryptophan fluorescence (excitation 280 nm): 1.8 µM unlabelled Tae4 with 2.3-9.9 µM wild-type Tai4; 50 mM MES pH 6.5, 200 mM NaCl; data not shown; conditions: both partners purified
[8] = target: T2, Tae4 effector protein from Salmonella …; assay: SEC-MALS; Superdex200 10/300 GL with multiangle light scattering detector; 50 mM Tris-HCl pH 8.0, 200 mM NaCl; 100 µM protein, 40 µl applied, 0.5 ml/min; conditions: both partners purified

Row | Molecule | kon [1] [M⁻¹ s⁻¹] | Kd [2] [nM] | koff [2] [s⁻¹] | also measured
1 | Tai4 immunity protein from Salmonella typhimurium, wild type, periplasmic (C-terminal hexahistidine tag) (from UniProt Q8ZRL5 27-127) (natural protein) | 2.48e+06 | < 0.28 | < 0.0007 | koff [3]: 7e-05 to 0.0007 s⁻¹
2 | Tai4(E71A_S98A) variant of the immunity protein from Salmonella typhimurium (C-terminal hexahistidine tag) (natural protein) | 2.81e+06 | 255 | 0.716 | –
3 | B1 | – | – | – | Kd [4]: 1.28 nM; stoichiometry N [5]: 2; Kd [6]: < 1 nM; kon [7]: 2.57e+06 ± 233000 M⁻¹ s⁻¹
4 | B2 | – | – | – | stoichiometry N [8]: 1 Tai4 per Tae4 (2:2)
